For experiment [1], the target named is T1, human alpha4beta7 (human, UniProt P13612 34-1032; P26010 20-798).
T1 construct: whole, on cells; also called a4b7; wt
Kind of experiment: FACS competition, blocks biotinylated MAdCAM-1-Fc binding to human CD4+CD45RA- memory T cells. As for the experimental part:
PBMC (fresh or frozen as described previously) are washed and resuspended in HEPES buffer (30 mM HEPES+[…]) with 1% BSA and 1 mM MnCl. to a final concentration of 10⁷cells/ml. Cells are blocked as described previously; after blocking, cells are incubated with a serial dilution of anti-alpha4beta7 antibody (or appropriate control) in 96 well plates for 30 minutes on ice, and then with 0.3 microG/ml biotinylated MAdCAM-1-Fc protein for another one hour.
After two washes in HEPES buffer with 1 mM MnCl, cells are treated with 1:100 dilution of streptavidin-PE, 4 microL CD3-Pacific Blue, CD4-PerCP-Cy5.5 and CD45RA-FITC as described previously, in a final volume of 100 microL. After one hour incubation on ice, cells are washed twice with HEPES buffer with 1 mM MnCl and then fixed in 200 microL buffer plus 0.5% paraformaldehyde. The percentage of positive MAdCAM-1-Fc binding CD4+CD45RA-memory T cells is determined by fluorescence activated cell sorter (FACS) analysis, as described previously.

The next experiment concerns the target a4(Q878R)b7 (human) (UniProt P13612). The experiment is described as follows: FACS on transfected 293 cells, 1 microG/ml, PE anti-human IgG.
The target in another experiment is a4b7(G629S) (human) (UniProt P13612). The experiment is described as above.
In the next experiment the target is a4b7(E97V) (human) (UniProt P13612). The description is as above.
Another experiment has as its target a4b7(R213S) (human) (UniProt P13612). Described as above.
A further experiment deals with a4(V824A)b7 (human) (UniProt P13612). The experiment is described as above.
Experiment [2] has as its target T1, human alpha4beta7. The experiment is described as above. An excerpt:
Point mutant constructs representing amino acid altering SNPs (a4b7(E97V); a4b7(R213S); a4b7(G629S; a4(V824A)b7; a4(Q878R)b7) in the extracellular domains of both alpha4 and beta7 were generated. Each point mutant construct was transfected to 293 cells along with the wild-type partner expression construct. Transfected 293 cells were first stained with 1 microG/ml of human IgG or anti-alpha4beta7 antibody, washed with PBS, and the stained with phycoerytherin conjugated secondary antibody goat-anti human IgG. After washing with PBS, cells were analyzed by fluorescence activated cell sorting, for example, with a FACSCalibur™ (BD Biosciences, San Jose Calif.).

Experiment [3] concerns the target T1, human alpha4beta7. The experiment is described as follows: FACS, biotinylated antibody on human CD4+CD45RA- memory T cells. As for the experimental part:
Human peripheral blood mononuclear cells (PBMC; fresh or frozen and thawed, for example in phosphate buffered saline with 2% FBS) are washed and resuspended in HEPES buffer (30 mM HEPES+[…]) with 1% BSA, with or without 1 mM MnCl₂ (depending on the experiment; Mn²⁺ is necessary for MAdCAM-1 binding) and plated into 96 well plates (10⁶cells/well). Cells are incubated with 10 microG/ml human IgG for 30 minutes on ice to block nonspecific binding. Cells are then incubated with serial dilutions of biotinylated anti-alpha4beta7 antibodies in 96 well plates for one hour on ice, followed by addition of 1:100 dilution of streptavidin-phycoerythrin (PE; Jackson ImmunoResearch Laboratories Inc., West Grove, Pa.), 4 microL CD3-Pacific Blue, CD4-PerCP-Cy5.5 and CD45RA-fluorescein isothiocyanate (FITC) (BD Biosciences, San Jose Calif.) for a final volume of 100 microL, and incubated for another hour on ice. Cells were washed twice with HEPES buffer (with or without MnCl₂, correspondingly) and then fixed in 200 microL HEPES buffer plus 0.5% paraformaldehyde (again, with or without MnCl₂, correspondingly). The percentage of positive alpha4beta7 antibody binding CD4+CD45RA-memory T cells is determined using a fluorescence activated cell sorter (FACS), for example, a BD™ LSR II benchtop flow cytometer (BD Biosciences, San Jose Calif.).

Experiment [4] deals with T1, human alpha4beta7. Kind of experiment: cell-based or functional assay.

Sequence of a4b7(E97V) (human) (P13612 34-1032, chain 1 of 2): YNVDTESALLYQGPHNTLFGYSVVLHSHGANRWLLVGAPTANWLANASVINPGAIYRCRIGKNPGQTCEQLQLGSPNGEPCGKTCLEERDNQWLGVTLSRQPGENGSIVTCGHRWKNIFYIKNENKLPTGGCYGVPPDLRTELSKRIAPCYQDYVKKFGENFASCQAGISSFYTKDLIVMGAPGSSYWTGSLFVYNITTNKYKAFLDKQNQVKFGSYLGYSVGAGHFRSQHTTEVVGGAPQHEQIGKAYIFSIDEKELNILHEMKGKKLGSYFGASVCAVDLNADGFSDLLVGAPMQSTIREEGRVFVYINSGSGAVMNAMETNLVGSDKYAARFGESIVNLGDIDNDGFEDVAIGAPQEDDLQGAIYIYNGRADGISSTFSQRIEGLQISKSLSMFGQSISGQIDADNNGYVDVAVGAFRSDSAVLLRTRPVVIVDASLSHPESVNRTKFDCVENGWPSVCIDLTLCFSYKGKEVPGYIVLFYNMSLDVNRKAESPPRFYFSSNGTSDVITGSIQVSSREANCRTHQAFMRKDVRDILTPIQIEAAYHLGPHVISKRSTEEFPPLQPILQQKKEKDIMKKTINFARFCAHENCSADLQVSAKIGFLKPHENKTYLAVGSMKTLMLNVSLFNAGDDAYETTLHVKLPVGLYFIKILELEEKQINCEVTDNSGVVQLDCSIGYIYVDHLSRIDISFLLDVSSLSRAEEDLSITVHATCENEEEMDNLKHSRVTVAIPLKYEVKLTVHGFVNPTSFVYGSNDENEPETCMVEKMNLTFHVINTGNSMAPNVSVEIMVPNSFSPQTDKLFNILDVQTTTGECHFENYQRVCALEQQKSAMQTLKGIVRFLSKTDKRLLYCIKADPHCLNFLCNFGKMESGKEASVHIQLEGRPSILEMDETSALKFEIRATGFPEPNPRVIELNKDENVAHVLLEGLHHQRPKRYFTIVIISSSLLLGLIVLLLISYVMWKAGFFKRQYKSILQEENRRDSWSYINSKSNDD
Sequence of a4b7(E97V) (human) (P26010 20-798 E97V, chain 2 of 2, further chain): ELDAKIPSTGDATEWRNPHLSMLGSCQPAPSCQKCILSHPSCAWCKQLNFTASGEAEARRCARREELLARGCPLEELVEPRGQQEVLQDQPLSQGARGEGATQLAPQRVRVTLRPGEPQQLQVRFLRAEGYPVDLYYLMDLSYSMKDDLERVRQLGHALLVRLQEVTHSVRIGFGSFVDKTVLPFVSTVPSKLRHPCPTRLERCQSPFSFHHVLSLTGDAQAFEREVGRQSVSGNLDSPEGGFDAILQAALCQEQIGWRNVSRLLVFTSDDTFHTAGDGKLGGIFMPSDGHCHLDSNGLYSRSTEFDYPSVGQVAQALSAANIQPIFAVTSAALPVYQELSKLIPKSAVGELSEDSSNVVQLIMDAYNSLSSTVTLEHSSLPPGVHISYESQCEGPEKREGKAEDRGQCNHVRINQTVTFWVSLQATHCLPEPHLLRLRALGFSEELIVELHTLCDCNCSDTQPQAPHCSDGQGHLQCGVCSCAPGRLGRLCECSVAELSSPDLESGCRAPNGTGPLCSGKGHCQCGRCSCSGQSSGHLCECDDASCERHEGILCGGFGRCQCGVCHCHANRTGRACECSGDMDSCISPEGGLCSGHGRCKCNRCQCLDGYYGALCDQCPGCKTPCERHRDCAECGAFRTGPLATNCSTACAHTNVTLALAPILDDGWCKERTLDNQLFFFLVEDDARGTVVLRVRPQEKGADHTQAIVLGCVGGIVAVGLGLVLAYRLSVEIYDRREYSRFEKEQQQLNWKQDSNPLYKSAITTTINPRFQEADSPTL
Sequence of a4(Q878R)b7 (human) (P13612 34-1032, chain 1 of 2): as the sequence (P13612 34-1032, chain 1 of 2) above
Sequence of a4(Q878R)b7 (human) (P26010 20-798, chain 2 of 2, further chain): as the sequence (P26010 20-798 E97V, chain 2 of 2, further chain) above, with V78E counted along it
Sequence of a4b7(R213S) (human) (P13612 34-1032, chain 1 of 2): as the sequence (P13612 34-1032, chain 1 of 2) above
Sequence of a4b7(R213S) (human) (P26010 20-798 R213S, chain 2 of 2, further chain): as the sequence (P26010 20-798 E97V, chain 2 of 2, further chain) above, with V78E, R194S counted along it
Sequence of a4b7(G629S) (human) (P13612 34-1032, chain 1 of 2): as the sequence (P13612 34-1032, chain 1 of 2) above
Sequence of a4b7(G629S) (human) (P26010 20-798 G629S, chain 2 of 2, further chain): as the sequence (P26010 20-798 E97V, chain 2 of 2, further chain) above, with V78E, G610S counted along it
T1 sequence (P13612 34-1032, chain 1 of 2): as the sequence (P13612 34-1032, chain 1 of 2) above
T1 sequence (P26010 20-798, chain 2 of 2): as the sequence (P26010 20-798 E97V, chain 2 of 2, further chain) above, with V78E counted along it
Sequence of a4(V824A)b7 (human) (P13612 34-1032 V824A, chain 1 of 2): as the sequence (P13612 34-1032, chain 1 of 2) above, with V791A counted along it
Sequence of a4(V824A)b7 (human) (P26010 20-798, chain 2 of 2, further chain): as the sequence (P26010 20-798 E97V, chain 2 of 2, further chain) above, with V78E counted along it

B1: 26G2 (antibody, V domains shown)
VH: QVQLVESGGGLVKPGGSLRLSCAASGFTFSDYYMSWIRQAPGKGLEWVSYISSIGSAIHYADSVKGRFTISRDNAKNSLYLQMNSLRAEDTAVYYCAREYSSGWAYFDYWGQGTLVTVSS
VL: DIQMTQSPSSVSASVGDRVTITCRASQDISSWLAWYQQKPGTAPKVLIYSASSLQNGVPSRFSGRGSGTDFALTISSLQPEDFATYYCQQADSFPWTFGRGTKVEIK
notes: Fully human monoclonal from XenoMouse (human IgG2 or IgG4); kappa light chain; also called 26G2k; 26G2K
In general, IC50 refers to the point on the concentration scale where inhibition reaches its midpoint. Read a low IC50 as inhibition by little substance. The term EC50 denotes the concentration giving half of the maximal effect. As for B1, in the experiment with human alpha4beta7 [1], the IC50 came out at 99.6 ng/mL. The fluorescence staining intensity (geometric mean) turned out to be 58 with a4(Q878R)b7 (human); 64 in the experiment with a4b7(G629S) (human); 113 in the experiment with a4b7(E97V) (human); 38 in the experiment with a4b7(R213S) (human); 86 with a4(V824A)b7 (human); 99 in the experiment with human alpha4beta7 [2]. In the experiment with human alpha4beta7 [3], this molecule displayed an EC50 of 32.6 ng/mL. Further, the “HUT78 Adhesion IC50” value in the experiment with human alpha4beta7 [4] came out at 6.9 ng/mL.

B2: 25C9 (antibody, V domains shown)
VH: QVQLVESGGGLVKPGGSLRLSCAASGFTFNDYYMSWIRQAPGKGLEWVSYISSSGSAIHYADSVKGRFTISRDNAKNSLYLQMNSLRAEDTAVYYCAREYSSGWAYFDYWGQGTLVTVSS
VL: DIQMTQSPSSVSASVGDRVTITCRASQDISSWLAWYQRKPGKAPKVLIYSASSLQSGVPSRFSGSGSGTDFTLTISSLQPEDFATYYCQQADSFPWTFGQGTKVEIK
notes: Fully human monoclonal from XenoMouse (human IgG2 or IgG4); kappa light chain; also called 25C9k; 25C9K
With B2, the IC50 with human alpha4beta7 [1] came to 77.6 ng/mL. Also, the fluorescence staining intensity (geometric mean) was found to be 51 in the experiment with a4(Q878R)b7 (human); 59 with a4b7(G629S) (human); 106 in the experiment with a4b7(E97V) (human); 33 with a4b7(R213S) (human); 77 with a4(V824A)b7 (human); 96 with human alpha4beta7 [2]. The “HUT78 Adhesion IC50” value in the experiment with human alpha4beta7 [4] was determined as 13.7 ng/mL.

B3: 27G8 (antibody, V domains shown)
VH: EVQLVESGGGLVQPGGSLRLSCAASGFTFSSYWMSWVRQASGKGLEWVANIKQDGSEKYYVDSVKGRFTISRDNAKNSLYLQMNSLRAEDTAVYYCAREGGYDWNYADYYGMDVWGQGTTVTVSS
VL: QSVLTQPPSVSEAPRQRVTISCSGSNSNIGNNPVNWYQLFPGRAPKLLIYHDDLLPSGVSDRFSGSRSGTSASLAISGLQSEDETDYYCTAWDDSLNGWVFGGGTKLTVL
notes: Fully human monoclonal from XenoMouse (human IgG2 or IgG4); lambda light chain; PE-conjugated in the cynomolgus study; also called 27G8L; 27G8H
As to B3, in the experiment with human alpha4beta7 [1], the IC50 turned out to be 8.7 ng/mL. For the same molecule, the fluorescence staining intensity (geometric mean) came out at 58 with a4(Q878R)b7 (human); 68 in the experiment with a4b7(G629S) (human); 116 with a4b7(E97V) (human); 59 with a4b7(R213S) (human); 88 in the experiment with a4(V824A)b7 (human); 102 in the experiment with human alpha4beta7 [2]. The EC50 with human alpha4beta7 [3] came out at 6.3 ng/mL. Also, in the experiment with human alpha4beta7 [4], the “HUT78 Adhesion IC50” value is 14.9 ng/mL.

B4: 22B2 (antibody, V domains shown)
VH: EVQLVQSGAEVKEPGESLKISCKGSGYIFTSYWIAWVRQLPGKGLEWMGIIDPNDSDTRYSPSFQGQVTISADKSIHTAYLQWSSLKASDTAMYYCATHRLWLGTLPGGFYIWGQGTMVTVSS
VL: DVQMTQSPSSLSASVGDRVTITCQASQDITDYLNWYQQKPGKAPKLLIYDTSNLEAGVPSRFSGSGSGTDFTFTISSLQPEDIATYYCQQYDILPYSFGQGTDLEIK
notes: Fully human monoclonal from XenoMouse (human IgG2 or IgG4); kappa light chain; also called 22B2K; 22B2H
Molecule B4 came in with an IC50 with human alpha4beta7 [1] of 23.2 ng/mL. Moreover, the fluorescence staining intensity (geometric mean) worked out at 58 with a4(Q878R)b7 (human); 65 in the experiment with a4b7(G629S) (human); 108 with a4b7(E97V) (human); 58 with a4b7(R213S) (human); 85 in the experiment with a4(V824A)b7 (human); 97 with human alpha4beta7 [2]. This molecule also registered an EC50 with human alpha4beta7 [3] of 5.1 ng/mL. Further, the “HUT78 Adhesion IC50” value with human alpha4beta7 [4] is 3.7 ng/mL.

B5: 26H3 (antibody, V domains shown)
VH: EVQLVQSGAEVKKPGESLKISCKGSGYSFTGYWIGWVRQMPGKGLEWMGIIYPYDSDTRYSPSFQGQVTISADKSINTAYLQWSSLKASDTAMFYCASHRLWLGEFPGPLNIWGQGTMVTVSS
VL: DIQMTQSPSSLSASVGDRVTITCQASQDISNYLNWYQQKPGKAPKLLIYDASNLETGVPSRFSGSGSGTDFTFTINSLQPEDIATYFCQQYDNLPCSFGQGTKLEIK
notes: Fully human monoclonal from XenoMouse (human IgG2 or IgG4); kappa light chain; also called 26H3K; 26H3H
B5 returned an IC50 with human alpha4beta7 [1] of 14.1 ng/mL. Besides, in the experiment with human alpha4beta7 [2], the “fluorescence staining intensity (geometric mean)” value came to 93. For the same molecule, the EC50 with human alpha4beta7 [3] amounted to 9.3 ng/mL. Moreover, the “HUT78 Adhesion IC50” value with human alpha4beta7 [4] was 8.9 ng/mL.

B6: 19G6 (antibody, V domains shown)
VH: QVQLVESGGDLVKPGGSLRLSCAASGFTFSDYYMSWIRQAPGKGLEWISYISSSGSTMYYADSVKGRFTISRVNAKNSLYLQMNSLRAEDTAVYYCARDRSSGLVSFDYWGQGTLVTVSS
VL: DIQMTQSPSSLSASVGDRVTISCQASQDINTYLNWYQQKPGKVPKLLIYDASNLETGVPSRFSGSGSGTDFTFTISGLQPEDIATYYCQQFDNLPITFGQGTRLEIK
notes: Fully human monoclonal from XenoMouse (human IgG2 or IgG4); kappa light chain; also called 19G6K; 19G6H
In the case of B6, the IC50 with human alpha4beta7 [1] turned out to be 103 ng/mL. Also, the fluorescence staining intensity (geometric mean) was 46 in the experiment with a4(Q878R)b7 (human); 59 with a4b7(G629S) (human); 108 with a4b7(E97V) (human); 46 with a4b7(R213S) (human); 67 with a4(V824A)b7 (human); 94 in the experiment with human alpha4beta7 [2]. Also, the EC50 in the experiment with human alpha4beta7 [3] came out at 32.9 ng/mL. The “HUT78 Adhesion IC50” value with human alpha4beta7 [4] was determined as 12.2 ng/mL.

B7: 1A10 (antibody, V domains shown)
VH: QVQLVQSGAEVKKPGASVKVSCKVSGYTLNDLSMHWVRQAPGKGLEWMGGFDPAEGKIISAQKFQDRVTMTDDTSTDTAYMELSSLRSEDSAVYYCATLDFSSWFDPWGQGTLVTVSS
VL: DIQMTQSPSSVSASVGDRVTITCRASQGVSSWLAWYQQKPGMAPKLLIYAASILQSGVPSRFSGSGSGTDFTLTISSLQPEDFATYYCQQANSFPWTFGQGTKVEIK
notes: Fully human monoclonal from XenoMouse XG2kl or XG4kl mice (human IgG2 or IgG4); kappa light chain; also called 1A10K; 1A10H
Consider B7, for which, in the experiment with human alpha4beta7 [1], the IC50 worked out at 6.2 ng/mL. Also, the fluorescence staining intensity (geometric mean) with a4(Q878R)b7 (human) worked out at 70; with a4b7(G629S) (human), 80; with a4b7(E97V) (human), 135; with a4b7(R213S) (human), 31; with a4(V824A)b7 (human) it was 102; in the experiment with human alpha4beta7 [2], 122. Also, a half-maximal response in the experiment with human alpha4beta7 [3] (EC50) required 4.9 ng/mL. Also, in the experiment with human alpha4beta7 [4], the “HUT78 Adhesion IC50” value turned out to be 6.1 ng/mL.

B8: 3A5 (antibody, V domains shown)
VH: QVQLVQSGAEVKKPGASVKVSCKVSGYTLNDLSMHWVRQAPGKGLEWMGGFDPAEGKIISAQKFQDRVTMTDDTSTDTAYMELSSLRSEDSAVYYCATLDFSSWFDPWGQGTLVTVSS
VL: DIQMTQSPSSVSASVGDRVTITCRASQGVISWLAWYQQKPGMAPKLLIYAASILQSGVPSRFSGSGSGTDFTLTISSLQPEDFATYYCQQANSFPWTFGQGTNVEIK
notes: Fully human monoclonal from XenoMouse (human IgG2 or IgG4); kappa light chain; also called 3A5K; 3A5H
Molecule B8 displayed an IC50 in the experiment with human alpha4beta7 [1] of 6.2 ng/mL. Besides, the fluorescence staining intensity (geometric mean) with a4(Q878R)b7 (human) was determined as 71; in the experiment with a4b7(G629S) (human) it was 80; with a4b7(E97V) (human), 135; with a4b7(R213S) (human) it was 31; with a4(V824A)b7 (human), 110; in the experiment with human alpha4beta7 [2] it was 124. The molecule also registered an EC50 with human alpha4beta7 [3] of 5.6 ng/mL. For the same molecule, in the experiment with human alpha4beta7 [4], the “HUT78 Adhesion IC50” value worked out at 7.5 ng/mL.

(Values after patent US20100254975A1 (Amgen, published 2010).)
